{
  "source": "paper PMC5708649",
  "about": "“A novel Porphyromonas gingivalis enzyme: An atypical dipeptidyl peptidase III with an ARM repeat domain” (PLoS ONE, 2017)",
  "key": {"[1]": {"system": "N=C(N)NCCC[C@H](NC(=O)[C@@H](N)CCCNC(=N)N)C(=O)Nc1ccc2ccccc2c1", "assay": "purified protein, by the assay type", "details": "pH 8.0; 26.0 °C"}, "[2]": {"system": "Cc1cc(=O)oc2cc(NC(=O)[C@H](CCCNC(=N)N)NC(=O)[C@@H](N)CCCNC(=N)N)ccc12", "assay": "purified protein, by the assay type", "details": "pH 8.0; 26.0 °C"}},
  "data": [
    {"substance": "DPP III fragment (1–679 aa) (Porphyromonas gingivalis W83)", "values": [
      {"measurement": "Km", "setting": "[1]", "result": "4.37 ± 0.42", "unit": "µM"},
      {"measurement": "kcat", "setting": "[1]", "result": "0.0032 ± 0.0005", "unit": "s⁻¹"},
      {"measurement": "kcat/Km", "setting": "[1]", "result": 732, "unit": "M⁻¹ s⁻¹"},
      {"measurement": "Km", "setting": "[2]", "result": "9.97 ± 0.44", "unit": "µM"},
      {"measurement": "kcat", "setting": "[2]", "result": "0.0024 ± 0.0014", "unit": "s⁻¹"},
      {"measurement": "kcat/Km", "setting": "[2]", "result": 241, "unit": "M⁻¹ s⁻¹"}
    ]}
  ]
}
